Experimental data as given in the supplement of paper PMC9112550, “Optimization of the antimicrobial peptide Bac7 by deep mutational scanning” (BMC Biology, 2022).

Tested on: Escherichia coli TOP10
Test: shrunken log2 fold change of peptide-encoding DNA abundance (4.5 h post-induction vs induction); higher = less antimicrobial activity (less host growth inhibition)
Conditions: time post-induction: 4.5 h; library: site-saturation at positions 5, 18, 19, 20
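Also: peptides expressed intracellularly from a pBAD plasmid library in pooled LB shake-flask culture, induced with 0.3% L-arabinose, DNA abundance read by NGS, three biological replicates, DESeq2 with apeglm shrinkage.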

Going from RRIRPRPPRLPRPRPRPFHLPRP to RRIRKRPPRLPRPRPRPCYGPRP, the “shrunken log2 fold change” value rises from -0.54 to -0.237.

Going from RRIRERPPRLPRPRPRPKTNPRP to RRIRKRPPRLPRPRPRPAQCPRP, the “shrunken log2 fold change” value rises from -0.293 to -0.0613.

Compared with RRIRQRPPRLPRPRPRPVEWPRP, RRIRIRPPRLPRPRPRPDVLPRP is lower in “shrunken log2 fold change” value: 0.0152 for the first, -1 for the second.

RRIRTRPPRLPRPRPRPVDMPRP and RRIRNRPPRLPRPRPRPTECPRP are within 0.2 log units of each other in “shrunken log2 fold change” value: -0.238 for the first, -0.0689 for the second.

RRIRLRPPRLPRPRPRPGHPPRP and RRIRPRPPRLPRPRPRPFWQPRP are within 0.2 log units of each other in “shrunken log2 fold change” value: 0.0236 for the first, 0.00477 for the second.

RRIRERPPRLPRPRPRPEAFPRP and RRIRMRPPRLPRPRPRPDPNPRP are within 0.2 log units of each other in “shrunken log2 fold change” value: 0.0868 for the first, 0.0963 for the second.

RRIRWRPPRLPRPRPRPYSRPRP and RRIRMRPPRLPRPRPRPEFTPRP are within 0.2 log units of each other in “shrunken log2 fold change” value: -0.0788 for the first, 0.101 for the second.

Going from RRIRKRPPRLPRPRPRPKATPRP to RRIRMRPPRLPRPRPRPHKYPRP, the “shrunken log2 fold change” value falls from 0.0944 to -0.152.

RRIRSRPPRLPRPRPRPWNHPRP and RRIRVRPPRLPRPRPRPTKNPRP are within 0.2 log units of each other in “shrunken log2 fold change” value: -0.0307 for the first, -0.00729 for the second.

First: RRIRVRPPRLPRPRPRPDTWPRP
Second: RRIRERPPRLPRPRPRPAFEPRP
The “shrunken log2 fold change” value of the first is lower: -0.407 for the first, -0.0208 for the second.

Going from RRIRIRPPRLPRPRPRPTKVPRP to RRIRNRPPRLPRPRPRPNAMPRP, the “shrunken log2 fold change” value rises from -0.257 to 0.0458.

First: RRIRNRPPRLPRPRPRPDCMPRP
Second: RRIRWRPPRLPRPRPRPIHDPRP
The “shrunken log2 fold change” value of the first is higher: 0.113 for the first, -0.118 for the second.

RRIRKRPPRLPRPRPRPLPSPRP and RRIRDRPPRLPRPRPRPGQNPRP are within 0.2 log units of each other in “shrunken log2 fold change” value: 0.0447 for the first, -0.0354 for the second.

RRIRQRPPRLPRPRPRPWLGPRP and RRIRTRPPRLPRPRPRPVADPRP are within 0.2 log units of each other in “shrunken log2 fold change” value: -0.0417 for the first, 0.0403 for the second.

First: RRIRKRPPRLPRPRPRPAEPPRP
Second: RRIRDRPPRLPRPRPRPMGNPRP
The “shrunken log2 fold change” value of the first is higher: 0.429 for the first, -0.107 for the second.

Going from RRIRDRPPRLPRPRPRPQAHPRP to RRIRERPPRLPRPRPRPICYPRP, the “shrunken log2 fold change” value falls from 0.0994 to -0.4.

Compared with RRIRKRPPRLPRPRPRPQRVPRP, RRIRARPPRLPRPRPRPYQIPRP is lower in “shrunken log2 fold change” value: 0.146 for the first, -0.385 for the second.

Going from RRIRKRPPRLPRPRPRPTFNPRP to RRIRARPPRLPRPRPRPQTYPRP, the “shrunken log2 fold change” value rises from -0.344 to 0.00151.

RRIRWRPPRLPRPRPRPWPDPRP and RRIRMRPPRLPRPRPRPQGYPRP are within 0.2 log units of each other in “shrunken log2 fold change” value: 0.0849 for the first, 0.0234 for the second.

RRIRDRPPRLPRPRPRPAWKPRP and RRIRQRPPRLPRPRPRPPGKPRP are within 0.2 log units of each other in “shrunken log2 fold change” value: 0.0693 for the first, 0.0921 for the second.

Going from RRIRERPPRLPRPRPRPHIVPRP to RRIRMRPPRLPRPRPRPVATPRP, the “shrunken log2 fold change” value rises from -0.0314 to 1.64.

Going from RRIRVRPPRLPRPRPRPDQPPRP to RRIRYRPPRLPRPRPRPQIYPRP, the “shrunken log2 fold change” value falls from 0.166 to -0.132.

RRIRHRPPRLPRPRPRPCNAPRP and RRIRTRPPRLPRPRPRPAVVPRP are within 0.2 log units of each other in “shrunken log2 fold change” value: 0.0746 for the first, 0.0328 for the second.

Compared with RRIRMRPPRLPRPRPRPGWYPRP, RRIRQRPPRLPRPRPRPHCDPRP is higher in “shrunken log2 fold change” value: -0.277 for the first, 0.0241 for the second.

Compared with RRIRSRPPRLPRPRPRPGEVPRP, RRIRDRPPRLPRPRPRPSECPRP is lower in “shrunken log2 fold change” value: 0.223 for the first, -0.043 for the second.

Compared with RRIRGRPPRLPRPRPRPMWCPRP, RRIRYRPPRLPRPRPRPFDRPRP is lower in “shrunken log2 fold change” value: 0.667 for the first, -1.29 for the second.

RRIRYRPPRLPRPRPRPCVFPRP and RRIRCRPPRLPRPRPRPAHLPRP are within 0.2 log units of each other in “shrunken log2 fold change” value: -0.123 for the first, -0.104 for the second.

Going from RRIRSRPPRLPRPRPRPCWDPRP to RRIRTRPPRLPRPRPRPCEEPRP, the “shrunken log2 fold change” value rises from -0.189 to 0.0871.

RRIRQRPPRLPRPRPRPDVWPRP and RRIRGRPPRLPRPRPRPIFLPRP are within 0.2 log units of each other in “shrunken log2 fold change” value: -0.0325 for the first, 0.0935 for the second.

RRIRFRPPRLPRPRPRPGKSPRP and RRIRARPPRLPRPRPRPWENPRP are within 0.2 log units of each other in “shrunken log2 fold change” value: 0.0865 for the first, 0.0143 for the second.

Compared with RRIRYRPPRLPRPRPRPPHDPRP, RRIRMRPPRLPRPRPRPSCPPRP is higher in “shrunken log2 fold change” value: -0.383 for the first, -0.0916 for the second.

First: RRIRVRPPRLPRPRPRPQRQPRP
Second: RRIRRRPPRLPRPRPRPILAPRP
The “shrunken log2 fold change” value of the first is lower: -0.207 for the first, 1.17 for the second.

RRIRIRPPRLPRPRPRPYCSPRP and RRIRTRPPRLPRPRPRPIWKPRP are within 0.2 log units of each other in “shrunken log2 fold change” value: -0.0144 for the first, 0.0742 for the second.

Going from RRIRCRPPRLPRPRPRPIGFPRP to RRIRPRPPRLPRPRPRPPRWPRP, the “shrunken log2 fold change” value rises from 0.129 to 0.495.

RRIRDRPPRLPRPRPRPKKWPRP and RRIRYRPPRLPRPRPRPALFPRP are within 0.2 log units of each other in “shrunken log2 fold change” value: -0.0255 for the first, -0.0533 for the second.

RRIRLRPPRLPRPRPRPWYEPRP and RRIRMRPPRLPRPRPRPYRGPRP are within 0.2 log units of each other in “shrunken log2 fold change” value: 0.0242 for the first, 0.148 for the second.

Going from RRIRSRPPRLPRPRPRPDEQPRP to RRIRARPPRLPRPRPRPPWGPRP, the “shrunken log2 fold change” value rises from 0.202 to 0.48.

In the case of RRIRNRPPRLPRPRPRPRKTPRP, the “shrunken log2 fold change” value is reported as -0.0384.
